According to US20130007915A1:

Target: actin filament
Experiment: cell-based or functional assay

Substance	sliding velocity (in vitro sliding filament assay)
Flag-chimera XI protein (chimeric myosin XI: Chara corallina myosin XI motor domain on the A. thaliana MYA2 backbone, FLAG-tagged)	16.2 µm/sec
wild-type A. thaliana myosin XI-2 (MYA2), expressed from the Flag-MYA2 XI gene (from UniProt Q9LKB9 1-1505)	7 µm/sec
